First the molecules themselves.
T1: human DSG2 on cells (HeLa cells; polarized T84 cells) (human, UniProt Q14126 50-1118)
T1 construct: whole, on cells; also called HeLa cells, which express DSG2
T1 sequence: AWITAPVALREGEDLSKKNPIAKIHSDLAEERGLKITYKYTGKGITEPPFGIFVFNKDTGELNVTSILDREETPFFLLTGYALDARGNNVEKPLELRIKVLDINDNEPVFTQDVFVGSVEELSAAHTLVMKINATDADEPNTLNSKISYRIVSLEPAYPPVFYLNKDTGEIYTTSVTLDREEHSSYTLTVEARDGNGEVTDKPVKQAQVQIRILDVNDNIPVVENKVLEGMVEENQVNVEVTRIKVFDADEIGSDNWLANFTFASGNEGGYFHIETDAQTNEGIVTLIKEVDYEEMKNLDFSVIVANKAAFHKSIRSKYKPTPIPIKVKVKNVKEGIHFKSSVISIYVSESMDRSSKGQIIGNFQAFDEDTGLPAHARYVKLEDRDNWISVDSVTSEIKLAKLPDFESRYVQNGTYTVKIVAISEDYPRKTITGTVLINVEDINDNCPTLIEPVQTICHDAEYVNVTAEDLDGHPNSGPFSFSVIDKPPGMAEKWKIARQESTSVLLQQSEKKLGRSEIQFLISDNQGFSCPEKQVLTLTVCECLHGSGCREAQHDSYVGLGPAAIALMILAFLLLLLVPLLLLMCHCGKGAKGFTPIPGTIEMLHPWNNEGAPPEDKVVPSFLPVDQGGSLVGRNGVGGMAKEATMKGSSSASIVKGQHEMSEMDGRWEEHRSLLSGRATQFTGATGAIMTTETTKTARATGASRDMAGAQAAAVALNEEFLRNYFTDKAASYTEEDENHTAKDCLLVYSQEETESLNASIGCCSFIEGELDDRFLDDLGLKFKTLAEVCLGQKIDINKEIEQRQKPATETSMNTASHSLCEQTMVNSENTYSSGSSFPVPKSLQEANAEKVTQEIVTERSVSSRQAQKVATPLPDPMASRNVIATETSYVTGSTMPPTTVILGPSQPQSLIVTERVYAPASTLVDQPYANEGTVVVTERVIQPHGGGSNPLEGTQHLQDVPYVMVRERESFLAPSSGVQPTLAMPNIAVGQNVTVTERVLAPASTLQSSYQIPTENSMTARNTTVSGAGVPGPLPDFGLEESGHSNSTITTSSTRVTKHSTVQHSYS

T2: Recombinant human DSG2 protein (Leinco Technologies) (human, UniProt Q14126 50-609)
T2 construct: also called soluble DSG2; soluble recombinant DSG2
T2 sequence: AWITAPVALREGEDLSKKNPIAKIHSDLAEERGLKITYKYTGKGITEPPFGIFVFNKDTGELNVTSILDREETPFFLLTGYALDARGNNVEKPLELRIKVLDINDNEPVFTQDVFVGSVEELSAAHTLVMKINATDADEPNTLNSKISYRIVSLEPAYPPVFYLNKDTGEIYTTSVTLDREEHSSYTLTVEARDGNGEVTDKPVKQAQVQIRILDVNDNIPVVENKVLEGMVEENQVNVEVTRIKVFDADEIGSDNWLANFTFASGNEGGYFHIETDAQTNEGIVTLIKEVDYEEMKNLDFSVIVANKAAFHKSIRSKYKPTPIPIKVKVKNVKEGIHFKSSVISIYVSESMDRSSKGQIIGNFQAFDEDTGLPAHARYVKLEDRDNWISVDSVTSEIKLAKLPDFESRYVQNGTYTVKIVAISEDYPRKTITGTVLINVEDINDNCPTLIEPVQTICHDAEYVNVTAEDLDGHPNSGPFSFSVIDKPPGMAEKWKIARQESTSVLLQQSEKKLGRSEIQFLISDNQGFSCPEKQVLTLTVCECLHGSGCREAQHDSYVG

B1: dimeric Ad3 fiber knob mutant D261N, L296R (designed binder)
chain: MKVSALKEKVSALKEKVSALKEKVSALKEKVSALKEGSGGGSGGGSGGGSNSIALKNNTLWTGPKPEANCIIEYGKQNPDSKLTLILVKNGGIVNGYVTLMGASDYVNTLFKNKNVSINVELYFDATGHILPDSSSLKTDLELKYKQTADFSARGFMPSTTAYPFVLPNAGTHNENYIFGQCYYKASNGALFPLEVTVMLNKRLPDSRTSYVMTFLWSLNAGRAPETTQATLITSPFTFSYIREDD
notes: also called D261, L296R; combination of D261N and L296R
B2: dimeric Ad3 fiber knob mutant N186D, D261N (designed binder)
chain: B1 chain with N113D, R223L
notes: also called combination of N186D and D261N
B3: dimeric Ad3 fiber knob mutant N186D (designed binder)
chain: B1 chain with N113D, N188D, R223L
B4: dimeric Ad3 fiber knob mutant V189G (designed binder)
chain: B1 chain with V116G, N188D, R223L
B5: dimeric Ad3 fiber knob mutant L296R (designed binder)
chain: B1 chain with N188D
B6: dimeric Ad3 fiber knob mutant E299V (designed binder)
chain: B1 chain with N188D, R223L, E226V
B7: dimeric Ad3 fiber knob mutant S190P (designed binder)
chain: B1 chain with S117P, N188D, R223L
notes: also called 5190P [sic]
B8: Ad3 fiber knob mutant E248G+K258E without dimerization domain (ligand)
chain: NKLCSKLGNGLTFDSSNSIALKNNTLWTGPKPEANCIIEYGKQNPDSKLTLILVKNGGIVNGYVTLMGASDYVNTLFKNKNVSINVELYFDATGHILPDSSSLKTDLELKYKQTADFSARGFMPSTTAYPFVLPNAGTHNGNYIFGQCYYEASDGALFPLEVTVMLNKRLPDSRTSYVMTFLWSLNAGLAPETTQATLITSPFTFSYIREDD
notes: range 108-319; not shown: N-terminal 6-His tag of pQE30 and linker
B9: Ad3 fiber knob mutant K217E+F224S without dimerization domain (ligand)
chain: B8 chain with K110E, F117S, G141E, E151K
notes: range 108-319; also called K217E/F224S mutant (non-dimerized form); not shown: N-terminal 6-His tag of pQE30 and linker
B10: Ad3 fiber knob mutant F224L without dimerization domain (ligand)
chain: B8 chain with F117L, G141E, E151K
notes: as for B8
B11: Ad3 fiber knob mutant N293S without dimerization domain (ligand)
chain: B8 chain with G141E, E151K, N186S
notes: range 108-319; also called N293S/noDD; not shown: N-terminal 6-His tag of pQE30 and linker
B12: K217E+F224S (protein)
chain: B1 chain with K144E, F151S, N188D, R223L
B13: dimeric Ad3 fiber knob mutant N186D, D261N, L296R (designed binder)
chain: B1 chain with N113D
notes: also called mutant with mutations in all three areas (N185, D261, L296)

Changes are numbered by the printed parent chain. Numbers in names are those of the source.

In one assay the target is T1, human DSG2 on cells (HeLa cells; …). The assay can be described thus: attachment of 3H-labelled Ad3 virus (competitor) to HeLa cells pre-incubated with the dimeric knob.
Conditions: not given
As for B1, the “Inhibition of attachment in the presence of dimeric knob (JO-1 = 100%)” value (shortened to “Inhibition of attachment … (JO-1 = 100%)”) amounted to 20.1%.

Regarding B2, the “Inhibition of attachment … (JO-1 = 100%)” value stood at 23.5%.

On to B3, for which the “Inhibition of attachment … (JO-1 = 100%)” value stood at 56.5%.

For B4, the “Inhibition of attachment … (JO-1 = 100%)” value came to 81%.

Take B5: the “Inhibition of attachment … (JO-1 = 100%)” value amounted to 73.7%.

Regarding B6, the “Inhibition of attachment … (JO-1 = 100%)” value was 97.3%.

As to B7, the “Inhibition of attachment … (JO-1 = 100%)” value worked out at 73.4%.

Another assay deals with T2, Recombinant human DSG2 protein (Leinco …). The experiment in a line: SPR (BIAcore 3000), DSG2 immobilised on the sensor chip, knobs injected at 2.5 to 10 µg/ml, BIAeval.
Conditions: not given
As for B8, the Kd amounted to 0.0494 µM, the off-rate constant (koff) turned out to be 0.00147 s⁻¹ and the kon came out at 29800 M⁻¹ s⁻¹.

Regarding B9, the Kd was determined as 0.0539 µM, the koff was determined as 0.00317 s⁻¹ and the kon stood at 58800 M⁻¹ s⁻¹.

In the case of B10, the equilibrium dissociation constant (Kd) is 0.0787 µM, the koff was 0.00269 s⁻¹ and the kon worked out at 34200 M⁻¹ s⁻¹.

Consider B11, for which the Kd worked out at 0.0732 µM, the dissociation rate constant (koff) is 8.7e-05 s⁻¹ and the kon was 1190 M⁻¹ s⁻¹.

The target in a further assay is T1, human DSG2 on cells (HeLa cells; …). The assay can be described thus: cell-based or functional assay.
Conditions: not given
Consider B1, for which the “Inhibition of infection in the presence of dimeric knob (JO-1 = 100%)” value (from here on “Inhibition of infection … (JO-1 = 100%)”) turned out to be 1.5%.

On to B2, for which the “Inhibition of infection … (JO-1 = 100%)” value came out at 5.2%.

With B3, the “Inhibition of infection … (JO-1 = 100%)” value was determined as 32.7%.

B4: the “Inhibition of infection … (JO-1 = 100%)” value was found to be 54%.

In the case of B5, the “Inhibition of infection … (JO-1 = 100%)” value amounted to 5.1%.

On to B6, for which the “Inhibition of infection … (JO-1 = 100%)” value came out at 50.7%.

Regarding B7, the “Inhibition of infection … (JO-1 = 100%)” value turned out to be 30.9%.

The next assay relates to polarized colon cancer T84 cells. The experiment in a line: Transepithelial electrical resistance (TEER) permeability assay. Type of assay: cell-based. The settings on record: dimeric affinity-enhanced mutants; TEER at 4 hours; N=3. How it is done: FIG. 5. Correlation of reduced DSG2 binding with the ability to open epithelial junctions. A) Transepithelial electrical resistance (TEER) measured on polarized colon cancer T84 cells. Cells were cultured in transwell chambers until the TEER was constant, i.e. tight junctions had formed. A total of 5 μg of dimeric Ad3 fiber knobs in PBS was then added for 1 hour to the apical chamber. TEER was measured at the indicated time points. N=6. For time points 1.5 and 4 hours the difference between JO-1 vs D261N and N186D was significant (p<0.01). The arrows indicate the addition and removal of Ad3 fiber knobs. B) Enhancement of irinotecan therapy. A total of 4×10^6 A549 cells were injected subcutaneously into CB17-SCID/beige mice. Once the tumor reached a volume of ˜100 mm^3 (day 15 after implantation), the mice were injected intravenously with 2 mg/kg JO-1, E299V, N186D, or PBS, followed by an intravenous injection of irinotecan (37.5 mg/kg) one hour later. The treatment was repeated on day 25. N=5. […] The difference between “irinotecan” vs “JO-1+irinotecan” was significant (p<0.01) from day 20 on.
FIG. 9. Analysis of dimeric Ad3 fiber knob mutants with increased affinity to DSG2. A) Competition of Ad3-GFP virus infection on HeLa cells with dimeric affinity-enhanced mutant Y250F and JO-1 (dimeric wt Ad3 fiber knob). The experimental setting is as described for FIG. 3C. left panel: percentage of GFP positive cells. Right panel: mean fluorescence intensity. N=3. The standard deviation was less than 10%. B) Competition of Ad3-GFP virus infection on HeLa cells by Ad3 knob mutants with enhanced DSG2 binding but without dimerization domain. 1.5×10^5 HeLa cells were seeded into 24 well plates. Cells were incubated with the Ad3 knob mutants at the increasing concentrations for one hour at room temperature. 100 pfu/cell of Ad3GFP virus were then added and GFP expression was analyzed 18 hours later. C) TEER on colon cancer T84 cells. The experimental setting was the same as for FIG. 5A. The TEER at 4 hours is shown. N=3.
A total of 5×10^5 T84 cells were seeded in 12 mm transwell inserts (PET membrane, with 0.4 μm pore size (Corning, N.Y.) and cultured for >14 days until transepithelial electrical resistance (TEER) was stable. Culture medium was changed every 2-3 days. The cells were exposed to DSG2 ligands (20 μg/ml) in adhesion medium (DMEM, 1% FBS, 2 mM MgCl2, 20 mM HEPES) for 15 min at room temperature and TEER was measured and calculated as described elsewhere (39).
Take B12: the “TEER compared to JO-1” value is on record as “significantly higher”.

The next assay deals with T2, Recombinant human DSG2 protein (Leinco …). The assay can be described thus: Western blot of dimeric knob (trimer band), soluble recombinant DSG2 as probe, anti-DSG2 mAb.
Conditions: not given
Background: Immunoblotting shows a protein as a band on a membrane.
In the case of B1, the “Western blot residual DSG2 binding (wtAd3 knob = 100%)” value worked out at 7%.

On to B2, for which the “Western blot residual DSG2 binding (wtAd3 knob = 100%)” value was found to be 7%.

On to B3, for which the “Western blot residual DSG2 binding (wtAd3 knob = 100%)” value was determined as 5.3%.

Regarding B4, the “Western blot residual DSG2 binding (wtAd3 knob = 100%)” value is 14%.

As for B5, the “Western blot residual DSG2 binding (wtAd3 knob = 100%)” value worked out at 3.6%.

With B6, the “Western blot residual DSG2 binding (wtAd3 knob = 100%)” value was determined as 20%.

With B13, the “Western blot residual DSG2 binding (wtAd3 knob = 100%)” value amounted to 0%.

For the molecule B7, the “Western blot residual DSG2 binding (wtAd3 knob = 100%)” value stood at 7.1%.

A word on the Kd: it is the equilibrium constant for the complex coming apart. One may read the koff as a measure of how fast the partners let go of each other. As usually defined, the kon is a measure of how fast the partners come together.

Source of the values: patent publication US20150246949A1, “Desmoglein 2 (DSG2) Binding Proteins and Uses Therefor” (UNIVERSITY OF WASHINGTON THROUGH ITS CENTER FOR …, priority 2012, published 2015).
